Substitutions are numbered along the chain they refer to. In names and notes the source's numbering stands.
How the values were obtained:
[1] = target: T1, GST-tagged Pediculus humanus PINK1 (residues 128–575) (Pediculus humanus) (UniProt E0W1I1)
T1 sequence: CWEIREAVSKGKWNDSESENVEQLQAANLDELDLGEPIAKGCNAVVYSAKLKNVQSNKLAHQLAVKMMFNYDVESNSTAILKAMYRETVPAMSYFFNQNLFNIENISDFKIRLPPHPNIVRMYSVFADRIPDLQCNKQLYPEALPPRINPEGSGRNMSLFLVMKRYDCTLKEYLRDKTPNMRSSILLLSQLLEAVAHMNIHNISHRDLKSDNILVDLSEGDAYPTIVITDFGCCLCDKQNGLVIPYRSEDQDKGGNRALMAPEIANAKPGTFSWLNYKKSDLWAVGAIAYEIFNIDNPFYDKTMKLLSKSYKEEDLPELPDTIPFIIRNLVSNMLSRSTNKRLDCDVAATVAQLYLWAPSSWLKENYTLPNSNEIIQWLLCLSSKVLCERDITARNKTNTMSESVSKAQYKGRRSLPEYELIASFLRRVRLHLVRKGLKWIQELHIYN

[2] = target: T1, GST-tagged Pediculus humanus PINK1 (residues 128–575) (Pediculus humanus); remark: listed apart in the source
[3] = target: T2, C-terminal portion of ataxin-3 (residues 194–361) containing three UIM regions (UniProt P54252 194-361); assay: NMR titration; unlabelled ataxin^194–361 titrated into 15N-labelled Ubl variants, 1H-15N HSQC chemical shift changes, global fit for a single Kd (apparent); 150 uM Ubl domain (75 uM pUbl^P37L); 25 mM HEPES, 100 mM NaCl, 0.5 mM TCEP, pH 7.0, 25 °C; settings: both partners purified
T2 construct: Unlabelled in the NMR titrations; also called ataxin^194–361; tandem UIM region from ataxin-3; source: E. coli BL21(DE3), purified (Ni-NTA, TEV cleavage, second Ni-NTA)
T2 sequence (P54252 194-361): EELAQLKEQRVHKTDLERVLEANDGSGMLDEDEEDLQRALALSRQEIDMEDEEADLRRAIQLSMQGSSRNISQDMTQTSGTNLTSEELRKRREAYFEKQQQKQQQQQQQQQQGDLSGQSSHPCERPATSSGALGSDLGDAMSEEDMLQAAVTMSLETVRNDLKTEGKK

full-length parkin (1–465) G12R (from UniProt O60260 1-465) (enzyme)
rate of Ser-65 phosphorylation by PINK1 (time course, pSer-65 antibody Western blot), against WT full-length parkin [1]: 40%

parkin Ubl domain (1–76) I44A (from UniProt O60260 1-76) (domain or fragment)
phosphorylation by PINK1 against the WT Ubl domain (data not shown) [2]: 20 fold

B1: parkin Ubl domain (1–76), wild type (domain or fragment, human, UniProt O60260 1-76, looked up)
chain: MIVFVRFNSSHGFPVEVDSDTSIFQLKEVVAKRQGVPADQLRVIFAGKELRNDWTVQNCDLDQQSIVHIVQRPWRK
notes: parkin, human, ubiquitin-like (Ubl) domain, residues 1-76; 15N-labelled for the NMR titrations; also called WT Ubl domain; source: E. coli BL21(DE3), purified (Ni-NTA, Ulp1 cleavage, Superdex75)
Kd [3]: 187 ± 19 µM

B2: parkin Ser-65–phosphorylated Ubl domain (1–76) (domain or fragment, human, UniProt O60260 1-76, looked up)
chain: B1 chain
modifications: phosphoserine at 65
notes: parkin, human, ubiquitin-like (Ubl) domain, residues 1-76, phosphorylated at Ser-65; 15N-labelled for the NMR titrations; the preparative phosphorylation is not described; also called pUbl; pSer-65 Ubl; source: E. coli BL21(DE3), purified (Ni-NTA, Ulp1 cleavage, Superdex75); phosphorylated at Ser-65
Kd [3]: 652 ± 175 µM

B3: parkin Ubl domain (1–76) S65E, phosphomimetic (domain or fragment, human, UniProt O60260 1-76, looked up)
chain: B1 chain with S65E
notes: parkin, human, ubiquitin-like (Ubl) domain, residues 1-76, S65E; 15N-labelled for the NMR titrations; also called Ubl^S65E; source: E. coli BL21(DE3), purified (Ni-NTA, Ulp1 cleavage, Superdex75)
Kd [3]: 227 ± 26 µM

B4: parkin Ubl domain (1–76) P37L (domain or fragment, human, UniProt O60260 1-76, looked up)
chain: B1 chain with P37L
notes: parkin, human, ubiquitin-like (Ubl) domain, residues 1-76, ARJP substitution P37L; 15N-labelled for the NMR titrations; Disease-associated (ARJP) substitution; also called Ubl^P37L; source: E. coli BL21(DE3), purified (Ni-NTA, Ulp1 cleavage, Superdex75)
Kd [3]: 61 ± 2 µM

B5: parkin Ser-65–phosphorylated Ubl domain (1–76) P37L (domain or fragment, human, UniProt O60260 1-76, looked up)
chain: B1 chain with P37L
modifications: phosphoserine at 65
notes: parkin, human, ubiquitin-like (Ubl) domain, residues 1-76, ARJP substitution P37L, phosphorylated at Ser-65; 15N-labelled; used at 75 uM in the NMR titration; also called pUbl^P37L; pP37L; source: E. coli BL21(DE3), purified (Ni-NTA, Ulp1 cleavage, Superdex75); phosphorylated at Ser-65
Kd [3]: 231 ± 72 µM

Reference: PMC5925814, “Impact of altered phosphorylation on loss of function of juvenile Parkinsonism–associated genetic variants of the E3 ligase parkin” (The Journal of Biological Chemistry, 2018)
